From patent publication US20120316071A1 (published 2012)
Values belong to the binder of their own block, whether it stands above or below them.

How the values were obtained:
[1] = molecular target: T1, Recombinant Human DLL4 (R&D Systems Cat#1506-D4/CF) (human, UniProt Q9NR61 27-524); assay: MSD multispot ECL, antigen spotted on plate, Fab 22 nM; blank spot 289
T1 construct: Bought from R&D Systems; also called rHuman DLL4; delta-like protein 4

[2] = molecular target: T2, rHuman ErbB2/Fc Chimera, CF (R&D Systems Cat#1129-ER) (human, UniProt P04626 23-652); assay: as above
T2 construct: Bought from R&D Systems; also called human epidermal growth factor 2 receptor (ErbB2); not shown: Fc of the bought chimera

[3] = molecular target: T3, rHuman EGF R/Fc Chimera, CF (R&D Systems Cat#344-ER) (human, UniProt P00533 25-645); assay: as above
T3 construct: Bought from R&D Systems; also called epidermal growth factor receptor (EGF R); not shown: Fc of the bought chimera

[4] = molecular target: T4, rHuman HGF R/c-MET/Fc Chimera, CF (R&D Systems Cat#358-MT/CF) (human, UniProt P08581 25-932); assay: as above
T4 construct: Bought from R&D Systems; also called HGF R/Fc; hepatocyte growth factor receptor (HGF R/c-Met); not shown: Fc of the bought chimera

[5] = molecular target: T5, rHuman Notch-1/Fc Chimera, CF (R&D Systems Cat#3647-TK) (human, UniProt P46531 19-526); assay: as above
T5 construct: Bought from R&D Systems; not shown: Fc of the bought chimera

[6] = molecular target: T6, rHuman CD44/Fc Chimera, CF (R&D Systems Cat#3660-CD) (human, UniProt P16070 21-220); assay: as above
T6 construct: Bought from R&D Systems; not shown: Fc of the bought chimera

[7] = molecular target: T7, rHuman IGF-1 sR, (IGF-1 sR), CF (R&D Systems Cat#391-GR) (human, UniProt P08069 31-932); assay: as above
T7 construct: Bought from R&D Systems and called a soluble receptor; also called insulin-like growth factor-1 soluble receptor

[8] = molecular target: T8, rHuman P-Cadherin/Fc Chimera, CF (R&D Systems Cat#861-PC) (human, UniProt P22223 108-654); assay: as above
T8 construct: Bought from R&D Systems; not shown: Fc of the bought chimera

[9] = molecular target: T9, rHuman Erythropoietin R/Fc Chimera, CF (R&D Systems Cat#963-ER) (human, UniProt P19235 25-250); assay: as above
T9 construct: Bought from R&D Systems; also called EPO R/Fc; Epo R/Fc chimera; not shown: Fc of the bought chimera
T9 sequence (looked up): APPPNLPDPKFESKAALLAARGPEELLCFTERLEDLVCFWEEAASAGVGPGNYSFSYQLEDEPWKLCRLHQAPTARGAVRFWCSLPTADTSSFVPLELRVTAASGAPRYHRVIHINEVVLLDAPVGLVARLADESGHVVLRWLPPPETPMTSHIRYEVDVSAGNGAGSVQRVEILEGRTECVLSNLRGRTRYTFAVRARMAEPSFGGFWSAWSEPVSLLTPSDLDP

[10] = molecular target: T10, rHuman Erythropoietin R/Fc Chimera, CF (R&D Systems Cat#963-ER) (human, UniProt P19235 25-250); assay: ECL Multispot (MSD), antigen spotted; Fab 500 (µM); blank 439
T10 construct: Bought recombinant protein; also called EPO R; EPO R/Fc; Fc part of the bought chimera not given
T10 sequence (looked up): T9 sequence (looked up)

[11] = molecular target: T11, rHuman ErbB2/Fc Chimera, CF (R&D Systems Cat#1129-ER) (human, UniProt P04626 23-652); assay: as above
T11 construct: Bought recombinant protein; Fc part of the bought chimera not given

[12] = molecular target: T12, rHuman EGF R/Fc Chimera, CF (R&D Systems Cat#344-ER) (human, UniProt P00533 25-645); assay: as above
T12 construct: Bought recombinant protein; Fc part of the bought chimera not given

[13] = molecular target: T13, rHuman Notch-1/Fc Chimera, CF (R&D Systems Cat#3647-TK) (human, UniProt P46531 19-526); assay: as above
T13 construct: Bought recombinant protein; Fc part of the bought chimera not given

[14] = molecular target: T14, rHuman CD44/Fc Chimera, CF (R&D Systems Cat#3660-CD) (human, UniProt P16070 21-220); assay: as above
T14 construct: Bought recombinant protein; Fc part of the bought chimera not given

[15] = molecular target: T15, rHuman P-Cadherin/Fc Chimera, CF (R&D Systems Cat#861-PC) (human, UniProt P22223 108-654); assay: as above
T15 construct: Bought recombinant protein; Fc part of the bought chimera not given

[16] = molecular target: T16, rHuman Erythropoietin R/Fc Chimera, CF (R&D Systems Cat#963-ER) (human, UniProt P19235 25-250); assay: MSD multispot ECL, antigen spotted on plate; Fab 0.1275 uM; blank spot 530
T16 construct: Bought recombinant protein; also called EPO R/Fc; Epo R; Fc part of the bought chimera not given
T16 sequence (looked up): T9 sequence (looked up)

[17] = molecular target: T17, Recombinant Human DLL4 (R&D Systems Cat#1506-D4/CF) (human, UniProt Q9NR61 27-524); assay: as above
T17 construct: Bought recombinant protein; also called delta-like protein 4; rHuman DLL4

[18] = molecular target: T18, rHuman ErbB2/Fc Chimera, CF (R&D Systems Cat#1129-ER) (human, UniProt P04626 23-652); assay: as above
T18 construct: Bought recombinant protein; also called human epidermal growth factor 2 receptor; Fc part of the bought chimera not given

T4 sequence (P08581 25-932, change not shown): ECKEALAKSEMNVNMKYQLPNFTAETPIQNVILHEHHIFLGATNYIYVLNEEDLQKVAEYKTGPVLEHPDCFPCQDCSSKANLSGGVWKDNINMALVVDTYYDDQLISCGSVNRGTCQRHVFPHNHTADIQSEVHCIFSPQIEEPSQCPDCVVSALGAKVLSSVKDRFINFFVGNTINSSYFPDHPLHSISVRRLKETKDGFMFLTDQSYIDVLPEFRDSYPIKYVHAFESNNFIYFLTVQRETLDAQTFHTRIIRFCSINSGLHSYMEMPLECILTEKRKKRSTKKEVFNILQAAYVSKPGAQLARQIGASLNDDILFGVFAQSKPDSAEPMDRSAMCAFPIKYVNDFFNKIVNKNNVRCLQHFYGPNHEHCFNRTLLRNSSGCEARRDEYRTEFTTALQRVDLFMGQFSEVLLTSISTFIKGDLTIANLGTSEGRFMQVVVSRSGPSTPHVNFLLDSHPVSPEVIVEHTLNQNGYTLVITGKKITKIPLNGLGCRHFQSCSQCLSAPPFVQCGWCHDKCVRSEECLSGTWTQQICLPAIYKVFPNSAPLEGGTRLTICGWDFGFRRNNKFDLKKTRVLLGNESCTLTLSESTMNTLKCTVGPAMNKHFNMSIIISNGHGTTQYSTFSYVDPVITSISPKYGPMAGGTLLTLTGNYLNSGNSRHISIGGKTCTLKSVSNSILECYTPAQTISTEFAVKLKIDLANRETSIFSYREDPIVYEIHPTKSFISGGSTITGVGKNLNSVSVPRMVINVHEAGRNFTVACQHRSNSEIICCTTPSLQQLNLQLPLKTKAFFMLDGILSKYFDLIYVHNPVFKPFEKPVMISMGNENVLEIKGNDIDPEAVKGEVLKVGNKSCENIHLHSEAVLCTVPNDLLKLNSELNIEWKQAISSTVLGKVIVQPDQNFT

- ECL signal [1]: 342
- ECL signal [2]: 363
- ECL signal [3]: 312
- ECL signal [4]: 203
- ECL signal [5]: 389
- ECL signal [6]: 317
- ECL signal [7]: 347
- ECL signal [8]: 215
- ECL signal [9]: 2240
B1: Fab VH1-46_IGHD3-10*01_IGHJ4*01 & B3_IGKJ1*01 (Fab, V domains shown)
VH: QVQLVQSGAEVKKPGASVKVSCKASGYTFTSYYMHWVRQAPGQGLEWMGIINPSGGSTSYAQKFQGRVTMTRDTSTSTVYMELSSLRSEDTAVYYCAREYYYGSGSYYNDYFDYWGQGTLVTVSS
VL: not shown
notes: Tested as a Fab made in E. coli; VH was cloned into Plasmid A (CH1 constant region, His6 and Flag tags); The kappa VL was cloned into Plasmid C (kappa CL)

- ECL signal [10]: 1210
- ECL signal [11]: 1580
- ECL signal [12]: 1480
- ECL signal [13]: 785
- ECL signal [14]: 874
- ECL signal [15]: 1010
B2: Fab VH1-46_IGHD6-6*01_IGHJ1*01 S102A/S103P/S104F (APF) & L6_IGKJ1*01 (Fab, V domains shown)
VH: QVQLVQSGAEVKKPGASVKVSCKASGYTFTSYYMHWVRQAPGQGLEWMGIINPSGGSTSYAQKFQGRVTMTRDTSTSTVYMELSSLRSEDTAVYYCAREEYAPFSAEYFQHWGQGTLVTVSS
VL: not shown
notes: Tested as a Fab made in E. coli: VH cloned in Plasmid A (CH1 constant region, His6 and Flag tags), VL in Plasmid C (kappa constant region); also called H:APF & L:wt; APF triple mutant

- ECL signal [16]: 1070
- ECL signal [17]: 2380
- ECL signal [18]: 857
B3: Fab VH4-34_IGHD7-27*01_IGHJ4*01 & L5_IGKJ1*01 (Fab, V domains shown)
VH: QVQLQQWGAGLLKPSETLSLTCAVYGGSFSGYYWSWIRQPPGKGLEWIGEINHSGSTNYNPSLKSRVTISVDTSKNQFSLKLSSVTAADTAVYYCARANWGDYFDYWGQGTLVTVSS
VL: DIQMTQSPSSVSASVGDRVTITCRASQGISSWLAWYQQKPGKAPKLLIYAASSLQSGVPSRFSGSGSGTDFTLTISSLQPEDFATYYCQQANSFPPWTFGQGTKVEIKR
notes: Germline library Fab expressed in E. coli; VH was cloned into Plasmid A, which adds CH1 with His6 and Flag tags
